The values that follow come from PMC11633176.

Where two headings read alike, the source gives them in different places.

Common to all, as to assay: ITC; aliquots of HasBCTD variants (80-200 μM) injected into the cell containing HasR wild type or mutant proteins (4-15 μM); 25°C; 20 mM sodium phosphate, pH 7, 0.08% Zwittergent 3-14; fit to a model with one set of sites
The target of assay [1] is HasR_(ΔNterL1) (HasR_(ΔNter) with loop L1 P232GKE replaced by ATSA) (Serratia marcescens) (UniProt Q79AD2).
Assay [2] concerns the target HasR_(ΔNter) (HasR without the signaling domain, linker and TonB-box) (Serratia marcescens) (UniProt Q79AD2).
Assay [3] deals with HasR wild type (outer membrane heme transporter, TonB-dependent transporter) (Serratia marcescens).
The target of assay [4] is HasR_(ΔNterL10short) (HasR_(ΔNter) with loop L10 R774AFDRKLD replaced by ATSA) (Serratia marcescens) (UniProt Q79AD2).
Assay [5] concerns the target HasR_(ΔNterL1) (HasR_(ΔNter) with loop L1 P232GKE replaced by ATSA) (Serratia marcescens) (UniProt Q79AD2). The source holds these as a separate data set.
For assay [6], the target named is HasR_(ΔNter) (HasR without the signaling domain, linker and TonB-box) (Serratia marcescens) (UniProt Q79AD2). The source holds these as a separate data set.

For “HasBCTD (periplasmic C-terminal domain of the TonB-like protein HasB), wild type (domain or fragment)”, the dH in assay [1] is 9.2 kcal/mol; in assay [2] it was 11.1 kcal/mol; in assay [3], -19.1 kcal/mol; in assay [4] it was -2.9 kcal/mol; in assay [5], -9.2 kcal/mol; in assay [6], -11.1 kcal/mol. For the same substance, the Ka in assay [3] worked out at 7.5e+07 M⁻¹; in assay [4] it was 1.45e+08 M⁻¹; in assay [5] it was 3.03e+06 M⁻¹; in assay [6] it was 2.3e+06 M⁻¹. Moreover, the stoichiometry N came out at 1.03 in assay [3], 0.98 in assay [4], 1.1 in assay [5] and 1.1 in assay [6].
